Intracellular SNAP 25 cleavage (concentration of wt toxin used) data for one substance are collected here from patent US20110206616A1.

The target in the assay is SNAP 25 (endogenous, rat neuronal cells) (rat) (UniProt P60881). Briefly: cell-based or functional assay.
UniProt P60881, sequence (P60881 whole entry): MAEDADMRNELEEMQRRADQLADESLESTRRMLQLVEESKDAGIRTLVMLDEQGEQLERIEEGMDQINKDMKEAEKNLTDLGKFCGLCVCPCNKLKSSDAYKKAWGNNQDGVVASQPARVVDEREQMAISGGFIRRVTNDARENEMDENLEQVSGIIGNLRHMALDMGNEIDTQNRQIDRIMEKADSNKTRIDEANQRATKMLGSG

As to “wt BoNT/A (wild type botulinum neurotoxin serotype A) (from UniProt P0DPI1 2-1296)”, the intracellular SNAP 25 cleavage (concentration of wt toxin used) is 0.5 nM.
